T1: Ad5Δs truncated Ad5 fiber (deletion of the 14 central shaft repeats), on pseudotyped Ad5 particles (adenovirus serotype 5 (Ad5), UniProt P11818 1-581)
T1 construct: also called Ad5As; pLP32
T1 sequence: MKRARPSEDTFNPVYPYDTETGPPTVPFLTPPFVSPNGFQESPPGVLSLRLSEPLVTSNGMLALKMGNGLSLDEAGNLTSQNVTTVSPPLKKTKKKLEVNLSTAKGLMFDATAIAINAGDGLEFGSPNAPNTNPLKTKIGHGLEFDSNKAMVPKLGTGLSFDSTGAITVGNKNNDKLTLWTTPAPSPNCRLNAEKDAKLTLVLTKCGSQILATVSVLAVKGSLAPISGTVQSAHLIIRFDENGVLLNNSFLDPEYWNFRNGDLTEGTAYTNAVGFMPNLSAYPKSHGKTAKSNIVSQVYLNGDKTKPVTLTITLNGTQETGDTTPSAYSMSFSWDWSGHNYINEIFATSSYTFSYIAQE

B1: Ad37s/Ad5k chimeric fiber (Ad37 shaft fused to the Ad5 knob), on pseudotyped Ad5 particles (other)
chain: MKRARPSEDDFNPVYPYGYARNQNIPFLTPPFVSSDGFKNFPPGVLSLKLADPITITNGDVSLKVGGGLTLQDGSLTVNPKAPLQVNTDKKLELAYDNPFESSANKLSLKVGHGLKVLDEKSAAGLKDLIGKLVVLTGKGIGTENLENTDGSSRGIGINVRAREGLTFDNDGYLVAWNPKYDTRTLWTTPAPSPNCRLNAEKDAKLTLVLTKCGSQILATVSVLAVKGSLAPISGTVQSAHLIIRFDENGVLLNNSFLDPEYWNFRNGDLTEGTAYTNAVGFMPNLSAYPKSHGKTAKSNIVSQVYLNGDKTKPVTLTITLNGTQETGDTTPSAYSMSFSWDWSGHNYINEIFATSSYTFSYIAQE
notes: Built from Ad37 1-184, with the first seven residues changed to those of Ad5, and Ad5 400-581; also called pLP13
B2: Ad5s/Ad37s chimeric fiber (Ad5 fiber with the 3rd and 21st repeats replaced with the corresponding repeats of Ad37), on pseudotyped Ad5 particles (other)
chain: MKRARPSEDTFNPVYPYDTETGPPTVPFLTPPFVSPNGFQESPPGVLSLRLSEPLVTSNGMLALKMGNGLSLDEAGSLTVNPKAPLQVNTDSNINLEISAPLTVTSEALTVAAAAPLMVAGNTLTMQSQAPLTVHDSKLSIATQGPLTVSEGKLALQTSGPLTTTDSSTLTITASPPLTTATGSLGIDLKEPIYTQNGKLGLKYGAPLHVTDDLNTLTVATGPGVTINNTSLQTKVTGALGFDSQGNMQLNVAGGLRIDSQNRRLILDVSYPFDAQNQLNLRLGQGPLFINSAHNLDINYNKGLYLFTASNNSKKLEVNLSTAKGLMFDATAIAINAGDGLEFGSPNAPNTNPLKTKIGHGLEFDSNIGINVRAREGLTFDNDGAITVGNKNNDKLTLWTTPAPSPNCRLNAEKDAKLTLVLTKCGSQILATVSVLAVKGSLAPISGTVQSAHLIIRFDENGVLLNNSFLDPEYWNFRNGDLTEGTAYTNAVGFMPNLSAYPKSHGKTAKSNIVSQVYLNGDKTKPVTLTITLNGTQETGDTTPSAYSMSFSWDWSGHNYINEIFATSSYTFSYIAQE
notes: also called 'straightened' Ad5 fiber shaft; pLP43
B3: Coxsackie-Adenovirus Receptor (CAR) on A549 lung carcinoma cells (receptor)
chain: LSITTPEEMIEKAKGETAYLPCKFTLSPEDQGPLDIEWLISPADNQKVDQVIILYSGDKIYDDYYPDLKGRVHFTSNDLKSGDASINVTNLQLSDIGTYQCKVKKAPGVANKKIHLVVLVKPSGARCYVDGSEEIGSDFKIKCEPKEGSLPLQYEWQKLSDSQKMPTSWLAEMTSSVISVKNASSEYSGTYSCTVRNRVGSDQCLLRLNVVPPSNKAGLIAGAIIGTLLALALIGLIIFCCRKKRREEKYEKEVHHDIREDVPPPKSRTSTARSYIGSNHSSLGSMSPSNMEGYSKTQYNQVPSEDFERTPQSPTLPPAKVAAPNLSRMGAIPVMIPAQSKDGSIV
notes: whole, on cells; The assays were run on A549 cells, which were not transfected with CAR
B4: wild type Ad5 fiber protein, on Ad5-pseudotyped particles (Ad5.GFP.ΔF/5F) (other)
chain: MKRARPSEDTFNPVYPYDTETGPPTVPFLTPPFVSPNGFQESPPGVLSLRLSEPLVTSNGMLALKMGNGLSLDEAGNLTSQNVTTVSPPLKKTKSNINLEISAPLTVTSEALTVAAAAPLMVAGNTLTMQSQAPLTVHDSKLSIATQGPLTVSEGKLALQTSGPLTTTDSSTLTITASPPLTTATGSLGIDLKEPIYTQNGKLGLKYGAPLHVTDDLNTLTVATGPGVTINNTSLQTKVTGALGFDSQGNMQLNVAGGLRIDSQNRRLILDVSYPFDAQNQLNLRLGQGPLFINSAHNLDINYNKGLYLFTASNNSKKLEVNLSTAKGLMFDATAIAINAGDGLEFGSPNAPNTNPLKTKIGHGLEFDSNKAMVPKLGTGLSFDSTGAITVGNKNNDKLTLWTTPAPSPNCRLNAEKDAKLTLVLTKCGSQILATVSVLAVKGSLAPISGTVQSAHLIIRFDENGVLLNNSFLDPEYWNFRNGDLTEGTAYTNAVGFMPNLSAYPKSHGKTAKSNIVSQVYLNGDKTKPVTLTITLNGTQETGDTTPSAYSMSFSWDWSGHNYINEIFATSSYTFSYIAQE

Experiments:
[1] = biological target: B3; test: virus attachment to A549 cells at 4 C, bound genomes by TaqMan PCR; non-specific binding set by excess Ad5 knob
[2] = biological target: T1, Ad5Δs truncated Ad5 fiber (deletion of …); test: as above
[3] = biological target: B4; test: as above
[4] = biological target: B3; test: cell-based or functional assay

B1
binding result [1]: binds

B2
binding result [1]: binds

B3
binding result [2]: binds
binding result [3]: binds

B4
infection of A549 cells by GFP vector particles (FACS) [4]: ~8 fold
